Measured values: patent publication US9675625B2, “Medicament comprising recombinant antibody against chemokine receptor CCR4” (KYOWA HAKKO KIRIN CO., LTD., priority 2003, dated 2017)
Where “and” joins values, the source holds several entries; their conditions need not be identical. Equal entries are not always repeated.

Columns and labels:
CCRF-CEM cells [1] = assay: antitumor effect of KM 2760 and cyclophosphamide in combination, CCRF-CEM cells grafted in nude mouse; assay type: in vivo, Balb/c nude mouse; conditions: Day 4; KM 2760 800 μg per mouse Day 0 and Day 4; CPA 65 mg/kg Day 0; tail vein
Method: CCRF-CEM cells (human T cell leukemia cell line) were suspended in RPMI 1640 medium (Gibco BRL) at a concentration of 2×10^8 cells/mL, and 100 μL of the suspension was grafted intradermally in the right flank of Balb/c nude mice (Nippon Crea, male). On Day 18 after the cell grafting, a diameter of a tumor was measured with calipers, and a tumor volume was calculated using formula 2 in Example 2.
Individuals having the tumor volume within the range of 116 to 349 mm^3 (on average 219 mm^3) were selected, and grouped such that the average tumor volume to be almost the same. Each of the following agent A to D was administered to the mice. Incidentally, the grouping day was defined as Day 0.
The experiment was conducted with groups each consisting of five mice. Each of the agents was diluted with a physiological saline (Otsuka Seiyaku), and the diluent was administered from the tail vein. On Day 4, the tumor volume was measured. The antitumor effect was evaluated by comparing an average values of a tumor volume change (V/V0) on each measurement day when the tumor volume on Day 0 in each group was defined as V0.

CCR4/EL4 cells [2] = assay: antitumor effect of KM 2760 and IFN-α in combination, CCR4/EL4 cells grafted into tail vein of C57BL/6 mice, liver weight ratio; assay type: in vivo, C57BL/6 mouse
Method: CCR4/EL4 cells were suspended in RPMI 1640 medium (manufactured by Gibco BRL) at a concentration of 5×10^5 cells/mL, and 100 μl of the suspension was grafted into the tail vein of C57BL/6 mice (CLEA Japan Inc., male, 8 weeks old). Further, mice were grouped into A to D, and each of the agents A to D were administered to the mice. Incidentally, the day on which the tumor was grafted was defined as Day 0.
B. Group of administering IFN-α alone: 5×10^4 units of IFN-α (Universal type I interferon, manufactured by PBL Biomedical Laboratories) was intravenously administered per mouse once a day for 5 days from Day 1 to Day 5.
The experiment was conducted with group A consisting of 7 mice and groups B, C and D each consisting of 6 mice. […] The weight of all mice was measured on Day 14. After etherization and exsanguination, mice were brought to euthanasia by dislocation of the cervical spine. The liver was extracted, and the weight of the liver was then measured. A ratio of the liver weight to the weight of each individual (hereinafter referred to as a weight ration of a liver) was calculated by percentage.
The antitumor effect was evaluated by comparing the liver weight ratio (average value of six mice) of untreated healthy mice measured simultaneously and the liver weight ratio of each group increased by metastasis of tumor cells.
Further, the residual amount of tumor cells in the liver in each group was calculated as a T/C value using the following formula. T/C=(average values of a weight ration of a liver of each group−average value of a weight ration of a liver of an untreated mouse)/(average value of a weight ration of a liver of a negative control group−average value of a weight ration of a liver of an untreated mouse) (Formula 4)

CCR4/EL4 cells [3] = test system: CCR4/EL4 cells
Method: CCR4/EL4 cells (WO 01/64754) were suspended in RPMI 1640 medium (manufactured by Gibco BRL) at a concentration of 1×10^5 cells/mL, and 200 μL of the suspension was grafted into the peritoneal cavity of C57BL/6 mice (CLEA Japan Inc., male, 8 weeks old). After, mice was grouped into A to D, and each of the agents A to D was administered to each mouse. The day on which the tumor was grafted was defined as Day 0.
B. Group of administering M-CSF alone: 100 μg of M-CSF (Leucoprol, manufactured by Kyowa Hakko Kogyo Co., Ltd.) was intraperitoneally administered per mouse twice a day from Day-3 to Day-1 and once a day on Day 0, seven times in total.
The experiment was conducted with groups each consisting of 8 mice. […] The antitumor effect was evaluated by a ratio of average values of the number of survival days of mice in each group to an average value of the number of survival days of mice in the negative control group (hereinafter referred to as a life prolongation ratio).

CCRF-CEM cells [4] = assay: antitumor effect of KM 2760 and Methotrexate in combination, CCRF-CEM cells grafted in nude mouse; assay type: in vivo, Balb/c nude mouse; conditions: Day 7; KM 2760 800 μg per mouse Day 0 and Day 4; MTX 15 mg/kg Day 0 to Day 4; tail vein
Method: CCRF-CEM cells (human T cell leukemia cell line) were suspended in RPMI 1640 medium (Gibco BRL) at a concentration of 2×10^8 cells/mL, and 100 μL of the suspension was grafted into the ventral skin of Balb/c nude mice (CLEA Japan Inc. male). On Day 17 after the cell grafting, a diameter of a tumor was measured with calipers, and a tumor volume was calculated using formula 2 in Example 2.
Individuals having the tumor volume within the range of 121 to 348 mm^3 (on average 195 mm^3) were selected, and grouped such that the average tumor volume to be almost the same. Each of the following agents A to D was administered to the mice. Incidentally, the grouping day was defined as Day 0.
B. Group of administering KM 2760 alone: 800 μg of KM2760 was administered per mouse on Day 0 and Day 4.
C. Group of administering Methotrexate (hereinafter referred to as MTX; Methotrexate injection solution, Nippon Weisledary K.K.) alone: 15 mg/kg of MTX was administered per mouse for 5 days from Day 0 to Day 4. […]
The experiment was conducted with groups each consisting of five mice. […] On Day 7, the tumor volume was measured. The antitumor effect was evaluated by comparing average values of a tumor volume change (V/V0) when the tumor volume on Day 0 in each group was defined as V0.

CCR4/EL4 cells [5] = assay: antitumor effect of KM 2760 and G-CSF in combination, CCR4/EL4 cells grafted into ventral skin of C57BL/6 mice; assay type: in vivo, C57BL/6 mouse
Method: CCR4/EL4 cells (WO 01/64754) were suspended, in RPMI 1640 medium (Gibco BRL) at a concentration of 1×10^6 cells/mL, and 100 μL of the suspension was grafted into the right ventral skin of C57BL/6 mice (Nippon Crea, male, 8 weeks old). After, mice were grouped into A to D, each of the agents A to D were administered to each mouse. Incidentally, the day on which the tumor was grafted was defined as Day 0.
B. Group of administering KM 2760 alone: 100 μg of KM2760 was intravenously administered per mouse on Day 0 and Day 4.
C. Group of administering G-CSF alone: 10 μg of G-CSF (Neuup Injection 100, manufactured by Kyowa Hakko Kogyo Co., Ltd.) was subcutaneously administered per mouse once a day for 10 days from 4 days before the tumor grafting (hereinafter referred to as Day-4) to Day 5.
The experiment was conducted with group A consisting of 10 mice and groups B, C and D each consisting of 7 mice. […] Each of the diluent was administered at 100 μL. A diameter of a tumor was measured with calipers chronologically from Day 0 of each group. A tumor volume was calculated using formula 2 in Example 2.
Since the tumor death of the mouse was started in group A from Day 17 on, the evaluation of the tumor volume was finished on Day 14.
The antitumor effect (T/C value) in each group was evaluated by calculation using the following formula 3 for comparison between the average value of the tumor volume in group A and the average values of the tumor volume in each group on the final evaluation day (Day 14). (T/C value)=(average value of tumor volume in each group on Day 14)/average value of tumor volume in group A on Day 14) (Formula 3)

[6] = KM 2760 50 μg i.p. Day 0, M-CSF 100 μg i.p. seven times

B1: KM 2760: anti-CCR4 human chimeric antibody KM 2760 (FERM BP-7054, WO 01/64754) (antibody, V domains shown)
VH: EVQLVESGGDLMKPGGSLKISCAASGFIFSNYGMSWVRQTPDMRLEWVATISSASTYSYYPDSVKGRFTISRDNAENSLYLQMNSLRSEDTGIYYCGRHSDGNFAFGYWGRGTLVTVSA
VL: DVLMTQTPLSLPVSLGDQASISCRSSRNIVHINGDTYLEWYLQRPGQSPKLLIYKVSNRFSGVPDRFSGSGSGTDFTLKISRVEAEDLGVYYCFQGSLLPWTFGGGTRLEIRR
In the case of B1, the “T/C (V/V0 of group divided by V/V0 of negative control group)” value (CCRF-CEM cells [1]) is reported as 0.80, the “T/C value (residual amount of tumor cells in the liver, from liver weight ratio)” value (CCR4/EL4 cells [2]; Day 14, KM 2760 0.5 μg per mouse i.v. Day 1 and Day 5, IFN-α 5×10^4 units per mouse i.v. Day 1 to Day 5) is reported as 0.52 and the “antitumor effect compared to untreated group A (liver weight ratio)” value (CCR4/EL4 cells [2]; FIG. 7, Day 14) is reported as “low”. For the same molecule, the “Number of survival days (each mouse)” value (CCR4/EL4 cells [3]; 8 mice per group, KM 2760 50 μg per mouse i.p. Day 0, M-CSF 100 μg per mouse i.p. seven times Day-3 to Day 0, observation to Day 50) was 19 days and 21 days (3×) and 22 days and 24 days and 26 days and 27 days, the “Average number of survival days” value (CCR4/EL4 cells [3]; [6]) was 22.9 days and the “Life prolongation ratio (average survival days of group / negative control group)” value (CCR4/EL4 cells [3]; [6]) was 1.19. The “antitumor effect in comparison with untreated Group A (survival)” value (CCR4/EL4 cells [3]; Table 7) was “low”, the “T/C (V/V0 of group divided by V/V0 of negative control group)” value (CCRF-CEM cells [4]) was 0.65 and the “T/C value (average tumor volume of group / group A)” value (CCR4/EL4 cells [5]; Day 14, KM 2760 100 μg per mouse i.v. Day 0 and Day 4, G-CSF 10 μg per mouse s.c. once a day Day-4 to Day 5) was 0.48. For the same molecule, the “antitumor effect compared to untreated group A (tumor volume)” value (CCR4/EL4 cells [5]; FIG. 6, up to Day 14) was “low”.
